Tests used:
ERAL1 = target: T1, ERAL1 (UniProt O75616); test: EC50 of free RNA motif oligo competing protein binding to immobilised probe
T1 sequence: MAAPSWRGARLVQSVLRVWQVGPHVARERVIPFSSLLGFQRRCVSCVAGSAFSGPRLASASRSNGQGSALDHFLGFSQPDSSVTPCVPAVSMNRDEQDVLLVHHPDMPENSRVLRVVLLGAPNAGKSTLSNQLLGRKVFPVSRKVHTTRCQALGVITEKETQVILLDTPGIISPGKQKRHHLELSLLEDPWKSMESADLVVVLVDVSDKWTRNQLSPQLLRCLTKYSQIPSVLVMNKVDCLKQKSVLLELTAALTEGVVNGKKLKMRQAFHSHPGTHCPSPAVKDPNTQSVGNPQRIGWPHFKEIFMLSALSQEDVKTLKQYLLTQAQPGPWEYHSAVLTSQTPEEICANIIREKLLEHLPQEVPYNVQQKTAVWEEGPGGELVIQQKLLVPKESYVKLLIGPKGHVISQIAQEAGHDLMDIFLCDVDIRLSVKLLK
In short: (§1)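 Kd was calculated as EC50, taken from a four-parameter log-logistic fit, multiplied by a protein-dependent depletion factor. The assay used HEK293-FT lysate (2.5 mg protein/well) pre-incubated for 1 h at 4°C with free RNA oligos (0 nM to 30 μM), then incubated for 30 min at 4°C with the matching oligos bound through a 5′-amino-C6 linker to NHS-Sepharose beads. Bound proteins were measured by label-free LC-MS/MS and normalised to the control.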

MRPS18B = MRPS18B (UniProt Q9Y676); test: as above
In short: as §1

CNBP = CNBP (UniProt P62633); test: as above
In short: as §1

MYEF2 = target: T2, MYEF2 (UniProt Q9P2K5); test: as above
T2 sequence: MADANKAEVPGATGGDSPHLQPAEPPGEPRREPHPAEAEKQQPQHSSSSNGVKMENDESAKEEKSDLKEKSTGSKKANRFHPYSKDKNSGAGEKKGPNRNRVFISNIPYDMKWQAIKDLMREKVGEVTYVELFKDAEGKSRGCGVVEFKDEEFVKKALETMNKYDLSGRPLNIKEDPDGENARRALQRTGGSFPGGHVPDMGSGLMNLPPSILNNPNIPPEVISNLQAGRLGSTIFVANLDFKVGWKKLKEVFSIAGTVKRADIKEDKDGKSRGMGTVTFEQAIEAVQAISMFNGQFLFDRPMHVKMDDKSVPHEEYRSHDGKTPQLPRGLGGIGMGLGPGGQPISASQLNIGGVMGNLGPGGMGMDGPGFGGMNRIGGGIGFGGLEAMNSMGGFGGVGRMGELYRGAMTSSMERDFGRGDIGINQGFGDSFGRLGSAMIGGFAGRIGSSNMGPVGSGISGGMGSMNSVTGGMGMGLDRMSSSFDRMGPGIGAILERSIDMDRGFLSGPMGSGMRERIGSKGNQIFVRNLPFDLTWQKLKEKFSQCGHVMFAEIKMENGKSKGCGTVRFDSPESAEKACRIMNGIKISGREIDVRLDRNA
In short: as §1

HNRNPA1 = HNRNPA1 (UniProt P09651); test: as above
In short: as §1

LSM8 = target: T3, LSM8 (UniProt O95777); test: as above
T3 sequence: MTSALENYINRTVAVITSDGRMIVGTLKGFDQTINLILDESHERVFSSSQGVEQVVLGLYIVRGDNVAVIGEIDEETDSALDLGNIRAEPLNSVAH
In short: as §1

ZNFX1 = ZNFX1 (UniProt Q9P2E3); test: as above
In short: as §1

SRSF6 = SRSF6 (UniProt Q13247); test: as above
In short: as §1

GNB2L1 = GNB2L1 (UniProt P63244); test: as above
In short: as §1

IGF2BP1 = IGF2BP1 (UniProt Q9NZI8); test: as above
In short: as §1

RPS28 = RPS28 (UniProt P62857); test: as above
In short: as §1

LRPPRC = LRPPRC (UniProt P42704); test: Kd (EC50 corrected by depletion factor)
In short: as §1

TUBB2A = TUBB2A (UniProt Q13885); test: EC50 of free RNA motif oligo competing protein binding to immobilised probe
In short: as §1

SF3B5 = target: T4, SF3B5 (UniProt Q9BWJ5); test: as above
T4 sequence: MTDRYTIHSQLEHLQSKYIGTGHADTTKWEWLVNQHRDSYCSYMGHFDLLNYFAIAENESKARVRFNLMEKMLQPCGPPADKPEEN
In short: as §1

ERI3 = target: T5, ERI3 (UniProt O43414); test: as above
T5 sequence: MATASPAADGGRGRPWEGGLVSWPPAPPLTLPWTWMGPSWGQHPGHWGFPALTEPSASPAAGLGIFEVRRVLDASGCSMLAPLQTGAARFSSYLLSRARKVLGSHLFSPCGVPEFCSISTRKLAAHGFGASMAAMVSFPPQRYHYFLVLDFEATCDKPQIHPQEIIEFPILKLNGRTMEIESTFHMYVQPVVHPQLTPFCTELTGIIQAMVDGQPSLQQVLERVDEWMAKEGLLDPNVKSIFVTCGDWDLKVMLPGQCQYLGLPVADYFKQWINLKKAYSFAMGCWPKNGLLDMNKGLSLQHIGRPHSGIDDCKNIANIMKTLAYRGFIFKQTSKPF
In short: as §1

P4HA2 = P4HA2 (UniProt O15460); test: as above
In short: as §1

P4HA1 = P4HA1 (UniProt P13674); test: as above
In short: as §1

CNBP, sequence (P62633 whole entry): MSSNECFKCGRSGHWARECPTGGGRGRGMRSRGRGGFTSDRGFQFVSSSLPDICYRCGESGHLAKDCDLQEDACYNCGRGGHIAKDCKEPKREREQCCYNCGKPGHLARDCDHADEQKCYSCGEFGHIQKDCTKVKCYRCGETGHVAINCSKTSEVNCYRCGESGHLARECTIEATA
P4HA2, sequence (O15460 whole entry): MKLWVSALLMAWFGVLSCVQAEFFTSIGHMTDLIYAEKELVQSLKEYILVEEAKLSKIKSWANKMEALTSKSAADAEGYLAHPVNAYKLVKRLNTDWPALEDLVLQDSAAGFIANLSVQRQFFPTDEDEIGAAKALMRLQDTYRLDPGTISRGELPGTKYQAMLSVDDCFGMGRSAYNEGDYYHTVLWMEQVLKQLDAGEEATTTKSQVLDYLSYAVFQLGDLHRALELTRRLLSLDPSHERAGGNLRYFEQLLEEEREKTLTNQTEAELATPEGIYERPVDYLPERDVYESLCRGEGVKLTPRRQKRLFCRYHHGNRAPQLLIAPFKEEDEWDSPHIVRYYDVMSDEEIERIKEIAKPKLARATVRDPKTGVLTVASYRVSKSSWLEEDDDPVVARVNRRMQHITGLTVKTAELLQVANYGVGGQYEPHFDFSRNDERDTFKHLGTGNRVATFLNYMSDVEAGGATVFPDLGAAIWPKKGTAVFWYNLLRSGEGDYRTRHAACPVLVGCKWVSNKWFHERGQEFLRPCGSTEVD
TUBB2A, sequence (Q13885 whole entry): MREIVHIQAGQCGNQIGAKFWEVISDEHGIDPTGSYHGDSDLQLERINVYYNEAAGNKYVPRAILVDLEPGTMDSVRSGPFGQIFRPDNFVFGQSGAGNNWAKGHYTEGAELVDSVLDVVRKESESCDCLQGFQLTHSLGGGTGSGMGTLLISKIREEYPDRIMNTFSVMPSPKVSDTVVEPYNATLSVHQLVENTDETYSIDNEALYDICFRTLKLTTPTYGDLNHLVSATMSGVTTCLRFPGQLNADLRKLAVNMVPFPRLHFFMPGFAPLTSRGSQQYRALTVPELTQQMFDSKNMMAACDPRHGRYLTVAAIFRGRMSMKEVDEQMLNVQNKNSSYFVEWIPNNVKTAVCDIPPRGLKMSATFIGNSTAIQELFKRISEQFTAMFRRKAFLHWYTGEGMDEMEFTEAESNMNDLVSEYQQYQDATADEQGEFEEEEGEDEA
SRSF6, sequence (Q13247 whole entry, looked up): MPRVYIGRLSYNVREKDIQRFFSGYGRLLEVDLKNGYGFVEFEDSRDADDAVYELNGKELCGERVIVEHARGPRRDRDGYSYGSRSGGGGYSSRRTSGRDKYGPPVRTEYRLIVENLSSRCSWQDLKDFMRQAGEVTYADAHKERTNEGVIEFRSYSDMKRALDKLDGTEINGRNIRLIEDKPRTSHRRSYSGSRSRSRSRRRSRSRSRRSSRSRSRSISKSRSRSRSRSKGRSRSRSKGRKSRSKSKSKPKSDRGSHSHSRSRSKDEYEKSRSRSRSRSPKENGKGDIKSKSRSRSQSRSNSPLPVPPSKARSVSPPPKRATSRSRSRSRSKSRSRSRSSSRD
ZNFX1, sequence (Q9P2E3 whole entry): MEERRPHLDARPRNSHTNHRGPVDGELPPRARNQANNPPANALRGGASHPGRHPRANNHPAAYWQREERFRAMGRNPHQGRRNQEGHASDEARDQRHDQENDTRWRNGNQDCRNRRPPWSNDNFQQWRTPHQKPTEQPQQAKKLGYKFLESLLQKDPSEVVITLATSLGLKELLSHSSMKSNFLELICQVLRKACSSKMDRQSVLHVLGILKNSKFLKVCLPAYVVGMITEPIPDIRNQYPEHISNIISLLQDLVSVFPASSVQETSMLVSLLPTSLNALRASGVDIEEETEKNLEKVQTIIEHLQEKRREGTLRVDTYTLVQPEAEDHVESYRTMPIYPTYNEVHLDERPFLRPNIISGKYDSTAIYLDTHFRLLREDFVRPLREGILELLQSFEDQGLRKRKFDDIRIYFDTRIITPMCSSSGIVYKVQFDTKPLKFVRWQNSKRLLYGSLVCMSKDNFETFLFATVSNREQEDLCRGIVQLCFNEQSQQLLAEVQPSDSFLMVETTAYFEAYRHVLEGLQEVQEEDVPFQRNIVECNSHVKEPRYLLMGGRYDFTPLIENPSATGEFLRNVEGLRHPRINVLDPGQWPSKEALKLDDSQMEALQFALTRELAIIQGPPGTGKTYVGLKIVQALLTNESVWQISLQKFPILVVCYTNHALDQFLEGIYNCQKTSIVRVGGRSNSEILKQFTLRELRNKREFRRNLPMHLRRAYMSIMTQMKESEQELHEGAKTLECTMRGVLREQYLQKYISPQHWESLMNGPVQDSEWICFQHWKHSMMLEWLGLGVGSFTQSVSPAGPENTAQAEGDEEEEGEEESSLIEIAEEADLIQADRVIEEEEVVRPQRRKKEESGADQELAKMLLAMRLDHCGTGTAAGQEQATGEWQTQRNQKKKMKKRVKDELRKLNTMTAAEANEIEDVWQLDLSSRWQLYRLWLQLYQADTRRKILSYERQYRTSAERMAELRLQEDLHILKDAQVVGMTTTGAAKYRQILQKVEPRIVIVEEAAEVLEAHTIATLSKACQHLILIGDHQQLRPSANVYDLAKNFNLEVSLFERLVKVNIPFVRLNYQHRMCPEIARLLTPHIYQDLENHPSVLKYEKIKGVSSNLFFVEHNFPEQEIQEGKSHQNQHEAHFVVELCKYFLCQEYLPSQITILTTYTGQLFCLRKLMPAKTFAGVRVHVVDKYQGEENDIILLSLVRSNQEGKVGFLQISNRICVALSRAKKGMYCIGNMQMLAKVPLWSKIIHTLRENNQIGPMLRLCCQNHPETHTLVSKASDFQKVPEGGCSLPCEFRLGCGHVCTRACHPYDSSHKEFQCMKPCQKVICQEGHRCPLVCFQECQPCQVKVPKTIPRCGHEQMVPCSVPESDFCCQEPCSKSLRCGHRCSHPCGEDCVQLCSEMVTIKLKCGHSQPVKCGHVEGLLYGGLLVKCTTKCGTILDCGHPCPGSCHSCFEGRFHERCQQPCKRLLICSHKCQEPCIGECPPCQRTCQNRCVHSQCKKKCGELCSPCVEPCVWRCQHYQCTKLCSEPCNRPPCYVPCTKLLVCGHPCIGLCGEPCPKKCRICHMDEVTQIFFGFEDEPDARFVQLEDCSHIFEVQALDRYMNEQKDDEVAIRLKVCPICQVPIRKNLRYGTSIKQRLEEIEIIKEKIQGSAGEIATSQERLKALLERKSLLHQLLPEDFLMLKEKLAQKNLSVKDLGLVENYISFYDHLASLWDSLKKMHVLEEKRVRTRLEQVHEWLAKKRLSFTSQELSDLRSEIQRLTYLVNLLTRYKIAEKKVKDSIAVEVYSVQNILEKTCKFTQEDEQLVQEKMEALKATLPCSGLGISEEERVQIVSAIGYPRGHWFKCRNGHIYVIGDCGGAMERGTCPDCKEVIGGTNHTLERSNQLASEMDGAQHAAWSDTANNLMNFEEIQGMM
HNRNPA1, sequence (P09651 whole entry): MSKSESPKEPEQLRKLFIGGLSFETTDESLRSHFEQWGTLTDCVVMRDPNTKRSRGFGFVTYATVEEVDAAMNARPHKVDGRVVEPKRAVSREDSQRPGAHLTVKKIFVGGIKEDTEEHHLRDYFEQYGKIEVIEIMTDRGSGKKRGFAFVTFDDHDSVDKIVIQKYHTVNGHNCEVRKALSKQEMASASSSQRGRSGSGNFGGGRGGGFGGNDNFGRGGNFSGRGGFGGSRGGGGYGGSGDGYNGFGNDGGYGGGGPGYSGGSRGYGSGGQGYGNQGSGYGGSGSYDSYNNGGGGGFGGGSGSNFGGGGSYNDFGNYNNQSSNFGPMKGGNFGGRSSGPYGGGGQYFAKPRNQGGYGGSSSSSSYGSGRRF
P4HA1, sequence (P13674 whole entry): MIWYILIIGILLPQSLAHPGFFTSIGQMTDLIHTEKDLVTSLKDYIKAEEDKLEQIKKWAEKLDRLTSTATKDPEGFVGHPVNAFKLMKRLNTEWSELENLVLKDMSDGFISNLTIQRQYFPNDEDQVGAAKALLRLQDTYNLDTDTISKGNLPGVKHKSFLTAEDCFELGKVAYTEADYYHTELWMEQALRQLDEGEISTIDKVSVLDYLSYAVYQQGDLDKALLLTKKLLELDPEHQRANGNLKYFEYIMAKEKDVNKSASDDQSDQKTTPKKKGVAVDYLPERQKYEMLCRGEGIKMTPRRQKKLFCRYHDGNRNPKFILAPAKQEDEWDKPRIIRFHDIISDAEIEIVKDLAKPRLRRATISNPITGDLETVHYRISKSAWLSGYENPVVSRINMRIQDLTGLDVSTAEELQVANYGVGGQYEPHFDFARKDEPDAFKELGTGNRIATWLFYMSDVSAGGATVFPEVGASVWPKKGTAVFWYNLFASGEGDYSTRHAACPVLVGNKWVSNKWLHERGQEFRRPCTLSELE
IGF2BP1, sequence (Q9NZI8 whole entry): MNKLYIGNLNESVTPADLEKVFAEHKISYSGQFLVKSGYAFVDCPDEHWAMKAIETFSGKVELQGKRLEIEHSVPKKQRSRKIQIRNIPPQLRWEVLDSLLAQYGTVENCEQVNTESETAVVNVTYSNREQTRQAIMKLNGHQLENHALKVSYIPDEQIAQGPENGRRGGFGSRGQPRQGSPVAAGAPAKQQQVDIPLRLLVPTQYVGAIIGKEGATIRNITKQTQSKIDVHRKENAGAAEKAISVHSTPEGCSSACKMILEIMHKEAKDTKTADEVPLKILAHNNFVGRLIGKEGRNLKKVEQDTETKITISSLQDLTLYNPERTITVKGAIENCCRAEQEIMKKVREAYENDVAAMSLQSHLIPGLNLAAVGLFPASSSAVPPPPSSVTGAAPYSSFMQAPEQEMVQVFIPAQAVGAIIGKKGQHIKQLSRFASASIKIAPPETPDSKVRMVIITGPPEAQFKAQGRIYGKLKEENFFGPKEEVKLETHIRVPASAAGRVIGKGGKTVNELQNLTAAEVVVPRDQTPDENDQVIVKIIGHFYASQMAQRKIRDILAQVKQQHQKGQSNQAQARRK

Row | Sequence | EC50 (ERAL1) | EC50 (MRPS18B) | EC50 (CNBP) | EC50 (MYEF2) | EC50 (HNRNPA1) | EC50 (LSM8) | EC50 (ZNFX1) | EC50 (SRSF6) | EC50 (GNB2L1) | EC50 (IGF2BP1) | EC50 (RPS28) | Kd (LRPPRC) | EC50 (TUBB2A) | EC50 (SF3B5) | EC50 (ERI3) | EC50 (P4HA2) | EC50 (P4HA1)
1 | UAUUUAU | 27.8 nM | 51.4 nM | 2240 nM | 3800 nM | 2950 nM | 9580 nM | 436 nM |  |  |  |  |  |  |  |  |  | 
2 | CUGUCCU |  |  |  |  |  |  |  | 1140 nM | 2980 nM | 3740 nM | 212 nM | 1260 nM |  |  |  |  | 
3 | AAUAAA |  |  |  |  |  |  |  |  |  |  |  | 1130 nM | 1090 nM | 1210 nM | 1970 nM | 38.9 nM | 65.6 nM
